Measured values reported in patent US20240400627A1 (YALE UNIVERSITY, published 2024).

Molecular target: T1, Nicotinamide Nucleotide Transhydrogenase (NNT), endogenous, mouse kidney (mouse, UniProt Q61941 44-1086)
T1 construct: Inner mitochondrial membrane protein; absent in C57BL/6J mice (deletion of exons 7-11 of Nnt)
T1 sequence (looked up): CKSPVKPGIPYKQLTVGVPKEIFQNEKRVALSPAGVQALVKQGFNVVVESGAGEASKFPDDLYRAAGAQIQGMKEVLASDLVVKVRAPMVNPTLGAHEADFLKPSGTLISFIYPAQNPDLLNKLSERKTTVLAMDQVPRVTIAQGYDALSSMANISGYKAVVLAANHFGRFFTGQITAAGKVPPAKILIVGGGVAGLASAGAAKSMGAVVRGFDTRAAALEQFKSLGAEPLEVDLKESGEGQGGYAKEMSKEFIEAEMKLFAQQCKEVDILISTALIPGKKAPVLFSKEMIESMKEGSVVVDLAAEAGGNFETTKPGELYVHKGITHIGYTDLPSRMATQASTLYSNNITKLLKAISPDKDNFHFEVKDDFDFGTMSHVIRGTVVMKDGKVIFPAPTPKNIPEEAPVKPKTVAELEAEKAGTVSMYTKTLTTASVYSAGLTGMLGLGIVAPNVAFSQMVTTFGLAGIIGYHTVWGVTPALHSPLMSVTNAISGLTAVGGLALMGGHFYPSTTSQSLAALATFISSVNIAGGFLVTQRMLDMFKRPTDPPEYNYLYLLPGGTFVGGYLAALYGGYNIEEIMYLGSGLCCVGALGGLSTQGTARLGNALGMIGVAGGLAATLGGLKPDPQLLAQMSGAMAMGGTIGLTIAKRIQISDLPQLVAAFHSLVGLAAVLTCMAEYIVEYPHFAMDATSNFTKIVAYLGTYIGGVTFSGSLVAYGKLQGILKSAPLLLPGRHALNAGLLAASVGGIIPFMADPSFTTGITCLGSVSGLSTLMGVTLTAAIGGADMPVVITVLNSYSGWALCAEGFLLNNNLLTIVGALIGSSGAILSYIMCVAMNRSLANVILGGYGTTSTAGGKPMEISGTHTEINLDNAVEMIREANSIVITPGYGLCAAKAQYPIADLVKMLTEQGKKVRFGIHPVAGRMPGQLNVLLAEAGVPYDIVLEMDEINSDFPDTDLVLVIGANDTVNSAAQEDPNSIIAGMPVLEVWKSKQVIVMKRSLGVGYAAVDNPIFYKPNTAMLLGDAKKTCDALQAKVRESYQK
Experiment: anti-HA immunoprecipitation from mouse kidney lysates, immunoblot
Method: Homogenates were then sonicated for 30 seconds (2×15 second bursts at 40% power) and incubated for 45 minutes on ice to complete protein solubilization. Lysates were centrifuged at 8000 rpm for 15 minutes. Protein concentrations were measured with the Protein Assay Dye Reagent Concentrate (catalog #5000006, Bio-Rad). Anti-HA magnetic beads (catalog #88837, ThermoFischer Scientific) were equilibrated in lysis buffer (50 μL beads per reaction in 500 μl of lysis buffer) for 10 minutes at room temperature on a rocking shaker, and then incubated with a total of 4 mg of tissue lysate per sample, overnight, at 4° C. Following four 5-minute washes with 1 ml lysis buffer, the dynabeads were magnetically recovered and precipitated proteins were eluted in 60 μl of 2× Laemmli sample buffer (catalog #1610747, Bio-Rad) with 300 mM Dithiothreitol (DTT). One-third of the eluted proteins (20 μl) was loaded per sample per gel for immunoblotting.
The alleles required to produce the Pkd1-KO+/−CTT mice were moved to this NNT-deficient background (J-Pkd1-KO and J-Pkd1-KO+CTT). […] No NNT was detected in glomeruli or Bowman's capsule. This pattern reproduced the one reported in the Human Protein Atlas (Uhlen, et al., Science Vol. 347, 1260419 (2015)). […] NNT was only detected in immunoprecipitates from “N” cystic mice that express CTT and not in those derived from N-Pkd1-KO mice that express NNT but not CTT.

B1: 2HA-PC1-CTT (final 200 amino acids of human polycystin-1, aa 4102-4302, with an N-terminal 2xHA epitope tag) (other, not shown: small tags and cut ends)
chain: VILRWRYHALRGELYRPAWEPQDYEMVELFLRRLRLWMGLSKVKEFRHKVRFEGMEPLPSRSSRGSKVSPDVPPPSAGSDASHPSTSSSQLDGLSVSLGRLGTRCEPEPSRLQAVFEALLTQFDRLNQATEDVYQLEQQLHSLQGRRSSRAPAGSSRGPSPGLRPALPSRLARASRGVDLATGPSRTPLRAKNKVHPSST
notes: Expressed from a BAC transgene in renal epithelial cells of Pkd1-KO+CTT mice; detected as a 37-kDa HA-tagged band; also called 2HA-PKD1-CTT; polycystin-1 C-terminal tail
binding result: binds
